B1: TPR t1 (parent)
chain: GACCAAUCUGCCCUCAGAGCUCGAGAACAUCUUCGGAUGCAGAGGAGGCAGGCUUCGGUGGCGCGAUAGCGCCAACGUCCUCAACCUCCAAUGCAUCCCACCACAUGAUGAUGCCUGAAGAGCCUUGGUUUUUUG

Variants of: B1
Test: polymerase ribozyme fitness, log enrichment relative to wild type (log ratio); higher = more active; in vitro selection for triplet polymerase activity
In short: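 A heterodimeric triplet polymerase ribozyme had each of its subunits mutagenized by PCR into a library, which was transcribed. One round of in vitro selection, done in triplicate, annealed each library with a biotinylated primer, its partner subunit and triplets, then incubated it frozen at −7 °C before gel excision of extended constructs, streptavidin-bead capture and RT-PCR. Fitness is the logarithm of genotype enrichment relative to wild-type enrichment, based on Illumina sequencing of inputs and outputs and inverse-variance-weighted replicate averages. A base-2 logarithm is used, and genotypes were kept only with ≥10 input reads and ≥1 read per output.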

In order of falling “polymerase ribozyme fitness (log ratio)” value:
1. C28U G69U  -0.614
2. A29U A119G  -0.662
3. C28U C62U G69U  -1.04
4. A29G U130G  -1.15
5. A29U G58A U106A  -1.28
6. A29G G58U U59A  -1.29
7. A29C C53G A111U  -1.63
8. A29U G61C C72A  -1.68
9. A29G A66G  -1.88
10. A29U A41C  -2
11. A29U A46U U106A  -2.03
12. U30C C56U  -2.08
13. A29C C102A U109G  -2.1
14. A27G C88A  -2.13
15. A27U G61A C86U  -2.19
16. A29G A46U G69U C86U  -2.23
17. C28U C73A  -2.23
18. A29U U126C  -2.33
19. A29G C62A  -2.33
20. A29U G48A G63C A111C  -2.36
21. C28U G135U  -2.44
22. U30C C40U G120C  -2.45
23. A29G C79G  -2.5
24. C28U A83C  -2.54
25. A29G G47A U55A C56G  -2.62
26. C28U G44U C49U G63C G110A  -2.74
27. C28G G60U U130G  -2.82
28. U30C G58C  -2.83
29. A29U G48C  -2.86
30. A29U A46G C115G  -2.96
31. U30C C62U U78A U106C A121U  -3.04
32. C28A U96A C97A G110A C124A  -3.05
33. A29G A90C U92C  -3.09
34. A27U C72U U87G  -3.11
35. A29G C115U U126G  -3.15
36. A29G C53G U106A G117C  -3.33
37. U30C G52C  -3.38
38. A29U G48C C53U  -3.4
39. A29C A46U U54G U78C G120U  -3.43
40. A27U U59C  -3.53
41. A29C A41U C64U  -3.54
42. A29U C49G C73U C76U C94A  -3.55
43. C28G C82G C86A  -3.55
44. A29U C98U  -3.59
45. C28G G93A  -3.77
46. A29C G61U C70U A75G U78G  -3.77
47. C28U G47C C73A C97U  -3.8
48. A29U A83U C86A C114A A118U  -3.87
49. A27G G51A U78C  -3.93
50. C28U G52U C73G U78G G120U  -4.03
51. C31U A37U  -4.07
52. U30A C104U A121C  -4.08
53. A27U C76U A95G U130G  -4.08
54. A27U G57C C89G G120A U131A  -4.12
55. A29U G45A G47U  -4.18
56. A27G C115U  -4.58
57. A29G C40A A41U U92G  -4.59
58. C28G C40U G57U G63C  -4.66
59. U30A G48C G57A C124G  -4.73
60. C28A A119U  -4.75
61. A27U A46U  -4.77
62. C28G C56A C73G U106C  -4.85
63. A29U U38G G45U G120A U129A  -4.85
64. U30G U54A U112C  -5.05
65. U30C C40U C53G C56G C62U C76A  -5.08
66. A27U C85A C86A C101G  -5.15
67. C31G U112A  -5.33
68. C28G C53U G93A  -5.35
69. A27U A90U  -5.37
70. C28G C62G C98U C124U  -5.55
71. C28G C34G G110A G117U  -5.7
72. A27U C72U U106G U129A G135U  -5.91
73. C28G C53U U67G C73G C98A C102A A111U C114G  -6
74. A29U C94A C102G U109C U130C  -6.22
75. A27G G51U G61A U92A  -6.49
76. C28U U32A C70U G120C  -6.64
77. U30G A95C U96C A105U A111C G120C  -6.71
78. C31A A37G C80G C86U U92C A105U A111U  -7.03
79. C31G C70U C82G G117C  -7.1
80. C28G G42C G52C G69U G107A A108G C124G  -7.26
81. C31G C56G A68U U81A C99G G110C  -7.68
82. C28U G57U C86A A90G G93U U96G G113C A121U  -7.69
83. A27U C62U A74G  -7.73
84. C31G U33A G48U C49U C72G A108U G120U  -8.14
